{"source": "paper PMC3548949", "key": {"CC(=O)NCCCNCCCCNCCCN": {"tested_on": "CC(=O)NCCCNCCCCNCCCN", "assay": "steady-state oxygen consumption, oxygen electrode", "type": "biochemical, Saccharomyces cerevisiae", "conditions": "1.2 mM oxygen, pH 9.0, 10% glycerol, 25 °C, pH 9.0"}, "NCCCNCCCCNCCCN": {"tested_on": "NCCCNCCCCNCCCN", "assay": "steady-state oxygen consumption, oxygen electrode", "type": "biochemical, Saccharomyces cerevisiae", "conditions": "1.2 mM oxygen, pH 9.35, 10% glycerol, 25 °C, pH 9.35"}}}
{"substance": "Fms1 (Saccharomyces cerevisiae S288C; D94N)", "values": [{"measurement": "Km", "setting": "CC(=O)NCCCNCCCCNCCCN", "result": "30 ± 5", "unit": "µM"}, {"measurement": "kcat", "setting": "CC(=O)NCCCNCCCCNCCCN", "result": "9.7 ± 0.2", "unit": "s⁻¹"}, {"measurement": "kcat/Km", "setting": "CC(=O)NCCCNCCCCNCCCN", "result": "320000 ± 50000", "unit": "M⁻¹ s⁻¹"}, {"measurement": "Km", "setting": "NCCCNCCCCNCCCN", "result": "320 ± 88", "unit": "µM"}, {"measurement": "kcat", "setting": "NCCCNCCCCNCCCN", "result": "2.0 ± 0.3", "unit": "s⁻¹"}]}
{"substance": "Fms1 (Saccharomyces cerevisiae S288C; N195A)", "values": [{"measurement": "Km", "setting": "CC(=O)NCCCNCCCCNCCCN", "result": "104 ± 14", "unit": "µM"}, {"measurement": "kcat", "setting": "CC(=O)NCCCNCCCCNCCCN", "result": "8.1 ± 0.2", "unit": "s⁻¹"}, {"measurement": "kcat/Km", "setting": "CC(=O)NCCCNCCCCNCCCN", "result": "78000 ± 13000", "unit": "M⁻¹ s⁻¹"}, {"measurement": "Km", "setting": "NCCCNCCCCNCCCN", "result": "127 ± 27", "unit": "µM"}, {"measurement": "kcat", "setting": "NCCCNCCCCNCCCN", "result": "4.9 ± 0.2", "unit": "s⁻¹"}, {"measurement": "kcat/Km", "setting": "NCCCNCCCCNCCCN", "result": "38500 ± 8300", "unit": "M⁻¹ s⁻¹"}]}
